What was measured:
[1] = biological target: CD11a (human) (UniProt P20701); test: FACS on Jurkat B2.7 cells; background subtracted, rounded to nearest ten
[2] = biological target: CD11a (human) (UniProt P20701); test: FACS on Jurkat D1.1 cells; background subtracted, rounded to nearest ten
[3] = biological target: CD4 (human) (UniProt P01730); test: FACS on Jurkat B2.7 cells; background subtracted, rounded to nearest ten
[4] = biological target: CD45RA (human) (UniProt P08575); test: as above
[5] = biological target: CD45RA (human) (UniProt P08575); test: FACS on Jurkat D1.1 cells; background subtracted, rounded to nearest ten
[6] = biological target: CD7 (human) (UniProt P09564); test: FACS on Jurkat B2.7 cells; background subtracted, rounded to nearest ten
[7] = biological target: CD7 (human) (UniProt P09564); test: FACS on Jurkat D1.1 cells; background subtracted, rounded to nearest ten
[8] = biological target: TCRα/β (human); test: FACS on Jurkat B2.7 cells; background subtracted, rounded to nearest ten
[9] = biological target: TCRα/β (human); test: FACS on Jurkat D1.1 cells; background subtracted, rounded to nearest ten
[10] = biological target: CD43RO (so in the source); T200. LCA) (human) (UniProt P08575); test: FACS on Jurkat B2.7 cells; background subtracted, rounded to nearest ten
[11] = biological target: CD43RO (so in the source); T200. LCA) (human) (UniProt P08575); test: FACS on Jurkat D1.1 cells; background subtracted, rounded to nearest ten
[12] = biological target: CD29 (human) (UniProt P05556); test: FACS on Jurkat B2.7 cells; background subtracted, rounded to nearest ten
[13] = biological target: CD29 (human) (UniProt P05556); test: FACS on Jurkat D1.1 cells; background subtracted, rounded to nearest ten
[14] = biological target: CD18 (human) (UniProt P05107); test: FACS on Jurkat B2.7 cells; background subtracted, rounded to nearest ten
[15] = biological target: CD18 (human) (UniProt P05107); test: FACS on Jurkat D1.1 cells; background subtracted, rounded to nearest ten
[16] = biological target: CD58 (human) (UniProt P19256); test: FACS on Jurkat B2.7 cells; background subtracted, rounded to nearest ten
[17] = biological target: CD58 (human) (UniProt P19256); test: FACS on Jurkat D1.1 cells; background subtracted, rounded to nearest ten
[18] = biological target: CD5 (human) (UniProt P06127); test: FACS on Jurkat B2.7 cells; background subtracted, rounded to nearest ten
[19] = biological target: CD5 (human) (UniProt P06127); test: FACS on Jurkat D1.1 cells; background subtracted, rounded to nearest ten
[20] = biological target: CD3 (human) (UniProt P07766); test: FACS on Jurkat B2.7 cells; background subtracted, rounded to nearest ten
[21] = biological target: CD3 (human) (UniProt P07766); test: FACS on Jurkat D1.1 cells; background subtracted, rounded to nearest ten
[22] = biological target: MHC-classI (human); test: FACS on Jurkat B2.7 cells; background subtracted, rounded to nearest ten
[23] = biological target: MHC-classI (human); test: FACS on Jurkat D1.1 cells; background subtracted, rounded to nearest ten
[24] = biological target: CD16 (human); test: FACS on Jurkat B2.7 cells; background subtracted, rounded to nearest ten
[25] = biological target: CD16 (human); test: FACS on Jurkat D1.1 cells; background subtracted, rounded to nearest ten
[26] = biological target: CD1a (human) (UniProt P06126); test: FACS on Jurkat B2.7 cells; background subtracted, rounded to nearest ten
[27] = biological target: CD1a (human) (UniProt P06126); test: FACS on Jurkat D1.1 cells; background subtracted, rounded to nearest ten

CD16 (human), sequence (P06734 whole entry): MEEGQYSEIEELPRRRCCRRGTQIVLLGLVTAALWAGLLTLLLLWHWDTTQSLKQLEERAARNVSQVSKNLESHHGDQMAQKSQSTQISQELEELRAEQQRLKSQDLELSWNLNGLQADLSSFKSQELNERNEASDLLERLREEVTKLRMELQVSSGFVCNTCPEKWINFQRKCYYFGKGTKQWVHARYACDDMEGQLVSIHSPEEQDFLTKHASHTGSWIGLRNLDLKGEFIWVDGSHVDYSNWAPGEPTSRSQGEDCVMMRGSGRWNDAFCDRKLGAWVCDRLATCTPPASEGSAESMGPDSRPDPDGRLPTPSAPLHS
CD18 (human), sequence (P05107 23-769): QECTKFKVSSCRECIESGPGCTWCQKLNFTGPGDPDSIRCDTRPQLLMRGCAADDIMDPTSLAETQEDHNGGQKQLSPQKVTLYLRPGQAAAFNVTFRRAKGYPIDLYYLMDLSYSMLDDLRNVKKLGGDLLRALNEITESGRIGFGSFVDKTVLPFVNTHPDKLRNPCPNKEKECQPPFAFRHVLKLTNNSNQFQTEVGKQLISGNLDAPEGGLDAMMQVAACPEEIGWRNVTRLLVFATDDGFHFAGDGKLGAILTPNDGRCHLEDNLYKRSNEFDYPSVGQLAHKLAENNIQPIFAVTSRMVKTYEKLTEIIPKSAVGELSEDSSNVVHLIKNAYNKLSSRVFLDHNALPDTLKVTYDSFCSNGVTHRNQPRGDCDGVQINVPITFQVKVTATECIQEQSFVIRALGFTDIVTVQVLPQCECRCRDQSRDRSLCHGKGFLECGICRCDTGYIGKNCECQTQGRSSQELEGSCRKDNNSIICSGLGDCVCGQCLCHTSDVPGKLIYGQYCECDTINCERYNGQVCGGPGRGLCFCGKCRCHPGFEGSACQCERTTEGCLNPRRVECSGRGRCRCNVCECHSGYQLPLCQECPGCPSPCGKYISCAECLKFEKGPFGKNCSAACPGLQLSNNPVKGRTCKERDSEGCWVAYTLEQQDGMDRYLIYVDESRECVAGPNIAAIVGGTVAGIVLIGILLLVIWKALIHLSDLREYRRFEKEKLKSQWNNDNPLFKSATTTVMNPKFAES
CD7 (human), sequence (P09564 26-240): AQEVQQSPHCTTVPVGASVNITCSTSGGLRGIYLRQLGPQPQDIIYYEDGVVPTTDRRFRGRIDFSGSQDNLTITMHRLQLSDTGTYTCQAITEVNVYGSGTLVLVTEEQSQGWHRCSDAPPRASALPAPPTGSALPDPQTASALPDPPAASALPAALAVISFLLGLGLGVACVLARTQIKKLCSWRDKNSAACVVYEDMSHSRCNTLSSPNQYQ
CD58 (human), sequence (P19256 29-250): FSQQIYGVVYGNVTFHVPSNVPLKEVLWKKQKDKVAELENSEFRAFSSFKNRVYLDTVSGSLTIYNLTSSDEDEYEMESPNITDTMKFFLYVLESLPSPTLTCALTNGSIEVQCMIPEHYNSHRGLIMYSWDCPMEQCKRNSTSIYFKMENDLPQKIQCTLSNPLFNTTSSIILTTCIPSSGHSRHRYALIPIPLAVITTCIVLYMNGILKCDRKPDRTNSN
CD11a (human), sequence (P20701 26-1170): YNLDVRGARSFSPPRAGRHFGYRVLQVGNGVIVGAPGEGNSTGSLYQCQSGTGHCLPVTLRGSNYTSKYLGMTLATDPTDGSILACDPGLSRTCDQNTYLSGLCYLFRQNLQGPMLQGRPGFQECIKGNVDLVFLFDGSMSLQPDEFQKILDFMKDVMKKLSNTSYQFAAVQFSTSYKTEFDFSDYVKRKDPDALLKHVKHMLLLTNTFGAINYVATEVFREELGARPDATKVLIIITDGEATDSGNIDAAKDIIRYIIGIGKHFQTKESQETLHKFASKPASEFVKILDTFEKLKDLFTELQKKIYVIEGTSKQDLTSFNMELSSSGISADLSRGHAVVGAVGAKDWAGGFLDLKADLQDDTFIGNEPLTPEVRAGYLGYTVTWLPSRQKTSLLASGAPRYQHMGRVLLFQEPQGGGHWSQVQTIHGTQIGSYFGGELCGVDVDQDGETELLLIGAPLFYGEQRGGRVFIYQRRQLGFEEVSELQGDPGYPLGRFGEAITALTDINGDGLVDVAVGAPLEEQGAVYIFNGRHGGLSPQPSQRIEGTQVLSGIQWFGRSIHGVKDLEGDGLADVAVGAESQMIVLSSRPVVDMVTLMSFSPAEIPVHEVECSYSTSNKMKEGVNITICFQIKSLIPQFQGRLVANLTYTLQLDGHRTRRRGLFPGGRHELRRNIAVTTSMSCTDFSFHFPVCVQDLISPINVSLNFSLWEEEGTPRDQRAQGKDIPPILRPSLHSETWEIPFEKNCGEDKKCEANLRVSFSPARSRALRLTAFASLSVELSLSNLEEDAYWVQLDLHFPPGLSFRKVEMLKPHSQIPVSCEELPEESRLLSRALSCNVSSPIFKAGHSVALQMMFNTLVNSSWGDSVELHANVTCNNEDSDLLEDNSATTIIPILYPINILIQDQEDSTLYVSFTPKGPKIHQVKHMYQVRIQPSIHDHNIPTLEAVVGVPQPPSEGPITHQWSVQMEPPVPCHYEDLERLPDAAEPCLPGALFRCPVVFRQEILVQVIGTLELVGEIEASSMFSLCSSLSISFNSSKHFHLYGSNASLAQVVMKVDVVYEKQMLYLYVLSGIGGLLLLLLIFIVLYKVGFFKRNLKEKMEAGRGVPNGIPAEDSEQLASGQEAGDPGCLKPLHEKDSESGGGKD
CD5 (human), sequence (P06127 25-495): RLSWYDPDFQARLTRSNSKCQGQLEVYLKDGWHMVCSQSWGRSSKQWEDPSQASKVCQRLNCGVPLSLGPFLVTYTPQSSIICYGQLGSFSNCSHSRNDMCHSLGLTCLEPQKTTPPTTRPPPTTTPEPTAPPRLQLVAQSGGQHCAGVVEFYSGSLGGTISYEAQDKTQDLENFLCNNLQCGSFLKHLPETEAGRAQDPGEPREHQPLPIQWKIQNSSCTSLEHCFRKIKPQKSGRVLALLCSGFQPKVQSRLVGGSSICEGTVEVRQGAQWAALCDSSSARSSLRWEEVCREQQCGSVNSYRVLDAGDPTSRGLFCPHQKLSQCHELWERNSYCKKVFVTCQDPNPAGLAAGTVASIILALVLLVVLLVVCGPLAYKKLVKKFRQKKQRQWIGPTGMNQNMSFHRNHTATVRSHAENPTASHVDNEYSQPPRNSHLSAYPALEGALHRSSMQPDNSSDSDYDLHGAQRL
CD29 (human), sequence (P05556 21-798): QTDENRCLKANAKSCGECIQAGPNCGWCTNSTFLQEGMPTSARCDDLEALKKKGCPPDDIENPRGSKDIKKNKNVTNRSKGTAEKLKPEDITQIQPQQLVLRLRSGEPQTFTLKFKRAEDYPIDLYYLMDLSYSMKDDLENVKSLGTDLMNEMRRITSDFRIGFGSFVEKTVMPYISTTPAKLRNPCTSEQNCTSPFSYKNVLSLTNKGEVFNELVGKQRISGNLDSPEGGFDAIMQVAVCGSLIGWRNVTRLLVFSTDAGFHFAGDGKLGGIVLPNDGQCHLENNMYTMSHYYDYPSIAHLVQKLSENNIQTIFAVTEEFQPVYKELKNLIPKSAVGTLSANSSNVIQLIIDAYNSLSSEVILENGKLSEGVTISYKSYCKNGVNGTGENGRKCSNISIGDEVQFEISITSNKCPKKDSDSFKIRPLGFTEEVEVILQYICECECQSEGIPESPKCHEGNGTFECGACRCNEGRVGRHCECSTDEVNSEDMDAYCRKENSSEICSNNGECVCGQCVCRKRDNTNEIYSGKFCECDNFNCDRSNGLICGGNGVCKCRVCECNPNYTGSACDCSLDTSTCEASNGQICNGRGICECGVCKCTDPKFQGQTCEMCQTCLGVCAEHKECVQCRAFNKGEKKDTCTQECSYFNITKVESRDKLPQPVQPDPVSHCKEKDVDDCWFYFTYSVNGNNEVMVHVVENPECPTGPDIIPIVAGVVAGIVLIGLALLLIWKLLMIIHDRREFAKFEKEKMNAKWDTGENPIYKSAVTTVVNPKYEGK
CD3 (human), sequence (P07766 23-207): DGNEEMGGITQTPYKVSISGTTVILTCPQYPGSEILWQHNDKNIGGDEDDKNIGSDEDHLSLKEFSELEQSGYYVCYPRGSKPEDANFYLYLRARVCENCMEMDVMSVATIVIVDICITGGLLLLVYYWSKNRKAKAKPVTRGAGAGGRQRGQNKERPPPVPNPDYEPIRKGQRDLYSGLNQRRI
CD1a (human), sequence (P06126 17-327): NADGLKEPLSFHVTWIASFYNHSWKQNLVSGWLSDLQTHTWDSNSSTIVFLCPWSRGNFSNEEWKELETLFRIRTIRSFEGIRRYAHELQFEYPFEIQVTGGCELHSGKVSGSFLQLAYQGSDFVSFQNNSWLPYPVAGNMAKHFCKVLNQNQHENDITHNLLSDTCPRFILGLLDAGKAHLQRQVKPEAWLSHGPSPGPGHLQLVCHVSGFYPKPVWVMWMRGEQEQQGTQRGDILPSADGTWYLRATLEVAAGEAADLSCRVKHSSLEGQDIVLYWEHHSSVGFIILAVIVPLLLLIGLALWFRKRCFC

Substance: TS1/22.1.13 (anti-LFA-1a) (antibody)
- Mean Fluorescence Intensity (arbitrary units) [1]: 100
- Mean Fluorescence Intensity (arbitrary units) [2]: 40

Substance: OKT4 (anti-CD4) (antibody)
- Mean Fluorescence Intensity (arbitrary units) [3]: 130

Substance: 2H4 (antibody)
- Mean Fluorescence Intensity (arbitrary units) [4]: 40
- Mean Fluorescence Intensity (arbitrary units) [5]: 30

Substance: 3A1 (anti-CD7) (antibody)
- Mean Fluorescence Intensity (arbitrary units) [6]: 190
- Mean Fluorescence Intensity (arbitrary units) [7]: 200

Substance: BMA-031 (antibody)
- Mean Fluorescence Intensity (arbitrary units) [8]: 40
- Mean Fluorescence Intensity (arbitrary units) [9]: 10

Substance: UCHL1 (antibody)
- Mean Fluorescence Intensity (arbitrary units) [10]: 20
- Mean Fluorescence Intensity (arbitrary units) [11]: 10

Substance: 4B4 (antibody)
- Mean Fluorescence Intensity (arbitrary units) [12]: 110
- Mean Fluorescence Intensity (arbitrary units) [13]: 140

Substance: TS1/18.1.2.11.4 (anti-LFA-1β) (antibody)
- Mean Fluorescence Intensity (arbitrary units) [14]: 80
- Mean Fluorescence Intensity (arbitrary units) [15]: 30

Substance: TS2/9.1.4.3 (anti-LFA-3) (antibody)
- Mean Fluorescence Intensity (arbitrary units) [16]: 60
- Mean Fluorescence Intensity (arbitrary units) [17]: 40

Substance: OKT1 (anti-CD5) (antibody)
- Mean Fluorescence Intensity (arbitrary units) [18]: 90
- Mean Fluorescence Intensity (arbitrary units) [19]: 20

Substance: OKT3 (anti-CD3) (antibody)
- Mean Fluorescence Intensity (arbitrary units) [20]: 80
- Mean Fluorescence Intensity (arbitrary units) [21]: 30

Substance: W6/32 (anti-MHC class I) (antibody)
- Mean Fluorescence Intensity (arbitrary units) [22]: 70
- Mean Fluorescence Intensity (arbitrary units) [23]: 190

Substance: 3G8 (antibody)
- Mean Fluorescence Intensity (arbitrary units) [24]: 20
- Mean Fluorescence Intensity (arbitrary units) [25]: 20

Substance: OKT6 (anti-CD1a) (antibody)
- Mean Fluorescence Intensity (arbitrary units) [26]: 10
- Mean Fluorescence Intensity (arbitrary units) [27]: 10

— US7070777
